Source: patent US20070036799A1
Read-outs that look alike come from different tables or passages of the source. Blank lines part the entries; values can stand above or below the substance they belong to.

Tests used:
C1q [1] = experiment: SPR (BIAcore): 2B6 antibody captured on soluble CD32B (2bLAvi) on a CM-5 chip, C1q injected at 0.8-26 nM
[2] = target: soluble monomeric FcγRIIIA-linker-AVITAG (158V), biotinylated (human) (UniProt P08637); experiment: ELISA
[3] = target: FcγRIIB-Fc fusion protein (soluble dimeric FcγRIIB) (human) (UniProt P31994); experiment: ELISA
[4] = target: soluble monomeric FcγRIIIA-linker-AVITAG (158V), biotinylated (human) (UniProt P08637); experiment: SPR
Target sequence in this assay (P08637 17-203 F176V limits assumed, form in doubt): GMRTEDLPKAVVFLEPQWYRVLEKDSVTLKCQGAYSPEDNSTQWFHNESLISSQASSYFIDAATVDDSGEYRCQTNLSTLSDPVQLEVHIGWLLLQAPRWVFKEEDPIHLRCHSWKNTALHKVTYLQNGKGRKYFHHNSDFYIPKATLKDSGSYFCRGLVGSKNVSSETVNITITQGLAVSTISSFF

C1q [5] = experiment: SPR (BIAcore): 2B6 antibody captured on soluble CD32B (2bLAvi) on a CM-5 chip, C1q injected in a dilution series
[6] = target: FcγRIIB-Fc fusion protein (soluble dimeric FcγRIIB) (human) (UniProt P31994); experiment: SPR
[7] = target: FcγRIIB-Fc fusion protein (soluble dimeric FcγRIIB) (human) (UniProt P31994); experiment: BIAcore, separate fits at two concentrations of FcγRIIB-Fc, average (Table 18 prints 0.085)
[8] = target: FcγRIIB-Fc fusion protein (soluble dimeric FcγRIIB) (human) (UniProt P31994); experiment: SPR; remark: listed apart in the source
[9] = target: yeast-displayed wild type CH1-CH3 Fc fusion (pYD-CH1) (human) [IgG part: P01857]; experiment: FACS titration on yeast, MFI, nonlinear regression
monomeric human IgG = experiment: ELISA: plate coated with human IgG, receptor titrated, detection with DJ130c and anti-mouse peroxidase

Sequence of FcγRIIB-Fc fusion protein (soluble dimeric FcγRIIB) (human) (P31994 43-217): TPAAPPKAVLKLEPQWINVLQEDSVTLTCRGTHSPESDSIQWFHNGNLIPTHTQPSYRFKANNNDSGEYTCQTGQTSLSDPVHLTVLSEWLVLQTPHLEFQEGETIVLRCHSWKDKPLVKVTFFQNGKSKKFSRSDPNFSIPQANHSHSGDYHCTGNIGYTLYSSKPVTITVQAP
Sequence of C1q (P02745 23-245, chain 1 of 3): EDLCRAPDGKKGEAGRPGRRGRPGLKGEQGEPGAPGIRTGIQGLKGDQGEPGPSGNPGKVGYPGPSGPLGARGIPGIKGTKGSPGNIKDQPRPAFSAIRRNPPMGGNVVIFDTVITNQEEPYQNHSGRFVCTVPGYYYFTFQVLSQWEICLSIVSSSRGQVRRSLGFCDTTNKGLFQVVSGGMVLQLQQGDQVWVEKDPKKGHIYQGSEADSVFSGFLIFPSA
Sequence of C1q (P02746 28-253, chain 2 of 3, further chain): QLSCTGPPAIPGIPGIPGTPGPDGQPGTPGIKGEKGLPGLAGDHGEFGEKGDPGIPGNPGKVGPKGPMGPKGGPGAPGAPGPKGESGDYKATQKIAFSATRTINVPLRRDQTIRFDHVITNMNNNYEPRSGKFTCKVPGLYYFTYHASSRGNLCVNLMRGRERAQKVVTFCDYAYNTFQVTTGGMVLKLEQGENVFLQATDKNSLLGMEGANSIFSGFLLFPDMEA
Sequence of C1q (P02747 29-245, chain 3 of 3, further chain): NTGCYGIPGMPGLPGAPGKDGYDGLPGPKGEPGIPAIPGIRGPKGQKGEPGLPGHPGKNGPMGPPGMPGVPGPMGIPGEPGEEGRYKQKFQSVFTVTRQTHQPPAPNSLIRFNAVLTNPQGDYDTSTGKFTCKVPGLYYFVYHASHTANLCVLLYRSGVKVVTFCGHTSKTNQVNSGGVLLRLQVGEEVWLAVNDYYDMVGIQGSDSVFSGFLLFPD

koff (C1q [1]): 0.13 s⁻¹
Substance: 2B6 (upper panel of FIG. 36B, Fc region not labelled) (antibody)

fold vs wt [2]: 0.5 x increase
fold vs wt [3]: 0.75 x increase
Substance: ch4-4-20 S415I, L251F (antibody)

Kd [4]: 84 nM
Substance: ch4-4-20 K392T, P396L (from UniProt P01857 1-330) (antibody)

Kd [6]: 61.4 nM
koff [6]: 0.085 s⁻¹
koff [7]: 0.0847 s⁻¹
Kd [4]: 319 nM
kon [4]: 600000 M⁻¹ s⁻¹
Kd [8]: 94 nM
koff [8]: 0.094 s⁻¹
ELISA, OD [2]: 0.5 OD
ELISA, OD [3]: 0.4 OD
Substance: chimeric 4-4-20 anti-fluorescein antibody, wild type Fc

Continued, substance first:

Substance: 2B6 (lower panel of FIG. 36B, Fc region not labelled) (antibody)
Kd (C1q [5]): 7 nM
koff (C1q [5]): 0.06 s⁻¹

Substance: soluble FcγRIIIA tetrameric complex (from UniProt P08637 1-203) (receptor)
Kd [9]: 6 nM
EC50 (read off the curve) (monomeric human IgG): 1 µg/mL
